The record followed here is publication PMC12507091, “The CsWRKY50-CsREM1-CsTSⅠ module inhibits theanine biosynthesis in tea plants under drought stress”.

For data set [1], the target named is T1, CsREM1-GST (Camellia sinensis).
T1 chain: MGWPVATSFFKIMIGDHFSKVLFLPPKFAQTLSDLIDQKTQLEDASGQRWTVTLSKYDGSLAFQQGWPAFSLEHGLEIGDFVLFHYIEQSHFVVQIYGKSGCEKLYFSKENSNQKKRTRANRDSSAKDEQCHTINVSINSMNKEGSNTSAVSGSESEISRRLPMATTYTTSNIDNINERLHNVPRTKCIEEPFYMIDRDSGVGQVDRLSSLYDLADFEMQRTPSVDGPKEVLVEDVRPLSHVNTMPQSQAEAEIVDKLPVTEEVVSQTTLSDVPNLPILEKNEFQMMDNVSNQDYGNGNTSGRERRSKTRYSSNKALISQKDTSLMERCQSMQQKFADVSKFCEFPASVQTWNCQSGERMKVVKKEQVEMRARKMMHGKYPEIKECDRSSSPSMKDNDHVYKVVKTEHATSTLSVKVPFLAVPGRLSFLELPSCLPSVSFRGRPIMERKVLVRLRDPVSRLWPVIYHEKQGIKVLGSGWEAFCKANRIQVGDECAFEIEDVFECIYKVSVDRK
Put plainly: EMSA; not stated (EMSA protocol per Zhu et al. 2024). The settings on record: protein: recombinant; tags: GST (pGEX-4T, N-terminal by vector); blunt. (In general: A gel shift assay detects complexes by their altered migration in electrophoresis.)

For data set [2], the target named is CsWRKY50-GST (Camellia sinensis). Described as above. The note with it: protein: recombinant; tags: GST (pGEX-4T, N-terminal by vector); blunt.
CsWRKY50-GST (Camellia sinensis), sequence (chain, as listed by the source): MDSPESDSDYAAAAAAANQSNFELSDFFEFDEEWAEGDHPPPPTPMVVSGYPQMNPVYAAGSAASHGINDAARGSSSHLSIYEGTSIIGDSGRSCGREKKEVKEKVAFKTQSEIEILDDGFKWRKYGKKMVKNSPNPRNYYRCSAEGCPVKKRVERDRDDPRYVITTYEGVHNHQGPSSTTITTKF

B1: CsTSI promoter Probe-1 (dsDNA)
DNA 1: TATGTAATTTTATGTAGAGTTATACAT
DNA 2: ATGTATAACTCTACATAAAATTACATA
On to B1, for which the binding result in data set [1] is reported as “binds”.

B2: CsTSI promoter Probe-2 (dsDNA)
DNA 1: TTACAACATGCTACACAGACTCGTAAA
DNA 2: TTTACGAGTCTGTGTAGCATGTTGTAA
Consider B2, for which the binding result in data set [1] is reported as “binds”.

B3: CsREM1 promoter Probe (dsDNA)
DNA 1: TTTTGTCTATGTTTTGACTTACTAATAATT
DNA 2: AATTATTAGTAAGTCAAAACATAGACAAAA
For B3, the binding result in data set [2] was “binds”.
